The term Kd denotes the free concentration of one partner at which half of the binding sites on the other are occupied at equilibrium, for simple one-to-one binding. Broadly, the IC50 is the concentration at which inhibition is half-maximal. Low values mean greater potency, high ones weaker potency.

Test [1] concerns the target Cd200R (Rattus norvegicus) (UniProt Q9ES58). The settings on record: cited from earlier work.
For test [2], the target named is T1, biotinylated rat Cd200R monomeric bait (rat, UniProt Q9ES58 24-239, biotin on a specific lysine of the C-terminal BirA acceptor peptide (enzymatic monobiotinylation)).
T1 chain: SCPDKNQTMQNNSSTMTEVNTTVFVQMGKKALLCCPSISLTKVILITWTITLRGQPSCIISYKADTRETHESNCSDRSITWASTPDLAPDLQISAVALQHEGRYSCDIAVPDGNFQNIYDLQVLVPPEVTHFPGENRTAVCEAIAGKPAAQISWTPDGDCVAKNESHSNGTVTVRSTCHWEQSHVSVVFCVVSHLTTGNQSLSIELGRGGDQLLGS
Kind of test: ELISA; printed as log IC50 = -9.6; direct binding of pentameric prey to immobilised bait. A general note: ELISA stands for enzyme-linked immunosorbent assay.

The target of test [3] is T2, biotinylated Cd200R Gaussia luciferase pentamer (bait) (rat, UniProt Q9ES58 24-239, biotin on a specific lysine of the C-terminal BirA acceptor peptide (enzymatic biotinylation)).
T2 construct: Cd200R (CD200 receptor 1), rat, ectodomain; also called Cd200R Gaussia luciferase-tagged pentamer; source: HEK293E, transient transfection with BirA plasmid, secreted; purified; not shown: rat Cd4 domains 3+4, C-terminal, kept; five concatenated Gaussia luciferase units (AAG54095 residues K18-D185), C-terminal, kept; BirA biotin acceptor peptide, C-terminal, kept
T2 sequence (looked up): T1 chain
The test is described as follows: ELISA; AVEXIS: dilution series of biotinylated Gaussia luciferase pentamer immobilised as bait on a streptavidin-coated plate, probed with beta-lactamase-tagged pentameric prey; nitrocefin read-out. The settings on record: both partners purified.

Test [4] addresses T3, biotinylated rat Cd200R monomeric bait (rat, UniProt Q9ES58 24-239, biotin on a specific lysine of the C-terminal BirA acceptor peptide (enzymatic monobiotinylation)).
T3 construct: Cd200R (CD200 receptor 1), rat, ectodomain; Captured on streptavidin-coated plates by its biotin; also called Cd200R bait; source: HEK293E, transient transfection with BirA plasmid, secreted; purified; not shown: rat Cd4 domains 3+4, C-terminal, kept; BirA biotin acceptor peptide, C-terminal, kept
T3 sequence (looked up): T1 chain
Kind of test: ELISA; AVEXIS: dilution series of pentameric beta-lactamase prey on a fixed quantity of monomeric mono-biotinylated bait on a streptavidin-coated 96-well plate; 1 h at room temperature, washes in PBS / 0.1% Tween-20; nitrocefin, absorbance at 485 nm. The settings on record: both partners purified.

In test [5] the target is T1, biotinylated rat Cd200R monomeric bait. The test is described as follows: ELISA; printed as log IC50 = -9.9; direct binding of pentameric prey to immobilised bait.
The target in test [6] is T3, biotinylated rat Cd200R monomeric bait. The test is described as follows: ELISA; AVEXIS: dilution series of pentameric nano-luciferase prey on a fixed quantity of monomeric mono-biotinylated bait on a streptavidin-coated 96-well plate; 1 h at room temperature; furimazine, luminescence. The note with it: both partners purified.
The target is the same in test [7]. Kind of test: ELISA; AVEXIS: dilution series of pentameric Gaussia luciferase prey on a fixed quantity of monomeric mono-biotinylated bait on a streptavidin-coated 96-well plate; 1 h at room temperature; coelenterazine, luminescence. The settings on record: both partners purified.
For test [8], the target named is T2, biotinylated Cd200R Gaussia luciferase …. Kind of test: ELISA; AVEXIS, single construct: dilution series of biotinylated Gaussia luciferase pentamer bait on a streptavidin-coated plate, inactivated with coelenterazine, probed with non-biotinylated Gaussia luciferase pentamer prey; coelenterazine, luminescence. The note with it: both partners purified.

As for Cd200 (from UniProt P04218), the Kd in test [1] was 2500 nM.

B1: rat Cd200 beta-lactamase pentameric prey (domain or fragment, UniProt P04218 31-232, looked up)
chain: QVEVVTQDERKLLHTTASLRCSLKTTQEPLIVTWQKKKAVGPENMVTYSKAHGVVIQPTYKDRINITELGLLNTSITFWNTTLDDEGCYMCLFNMFGSGKVSGTACLTLYVQPIVHLHYNYFEDHLNITCSATARPAPAISWKGTGSGIENSTESHSHSNGTTSVTSILRVKDPKTQVGKEVICQVLYLGNVIDYKQSLDKG
notes: Cd200 (OX-2 membrane glycoprotein), rat, extracellular region (ectodomain); Original AVEXIS prey format; Pentamer through COMP; also called Cd200 beta-lactamase tagged prey; beta-lactamase-tagged Cd200 pentamer; source: HEK293E, transient transfection, secreted; not shown: rat Cd4 domains 3+4, C-terminal, kept; beta-lactamase (WP_125075679 residues H19-W282), C-terminal, kept
B1: in test [2], the IC50 was 0.25 nM. The binding result in test [3] and in test [4] was “binds” throughout.

B2: rat Cd200 nano-luciferase pentameric prey (domain or fragment, UniProt P04218 31-232, looked up)
chain: B1 chain
notes: Cd200 (OX-2 membrane glycoprotein), rat, extracellular region (ectodomain); also called NanoLuc prey; Nano luciferase prey; source: HEK293E, transient transfection, secreted; not shown: rat Cd4 domains 3+4, C-terminal, kept; five concatenated nano-luciferase units (AHH41346 residues V2-T171), C-terminal, kept
B2 registered an IC50 in test [5] of 0.126 nM. Besides, the binding result in test [6] is “binds”.

B3: rat Cd200 Gaussia luciferase pentameric prey (domain or fragment, UniProt P04218 31-232, looked up)
chain: B1 chain
notes: Cd200 (OX-2 membrane glycoprotein), rat, extracellular region (ectodomain); also called Cd200 Gaussia luciferase fusion pentamer; GLuc prey; source: HEK293E, transient transfection, secreted; not shown: rat Cd4 domains 3+4, C-terminal, kept; five concatenated Gaussia luciferase units (AAG54095 residues K18-D185), C-terminal, kept
As to B3, the IC50 in test [5] came to 0.126 nM. Moreover, the binding result in test [7] and in test [8] was “binds” throughout.

(Values after paper PMC7324543, “Rapid and sensitive large-scale screening of low affinity extracellular receptor protein interactions by using reaction induced inhibition of Gaussia luciferase” (Scientific Reports, 2020).)
